Laboratory results from paper PMC11416365, “Exploring the manganese-dependent interaction between a transcription factor and its corresponding DNA: insights from gas-phase electrophoresis on a nES GEMMA instrument” (Analytical and Bioanalytical Chemistry, 2024).

Target: the molecule itself
Assay: nES GEMMA (gas-phase electrophoresis, nES DMA); BMntR alone at different concentrations, electrosprayed from 40 mM ammonium acetate pH 8.4; EM diameter 5.9 nm turned into a molecular weight by an EM diameter/MW correlation (34.6 kDa against 33.8 kDa theoretical for the dimer)

B1: MntR protein from B. subtilis (natural protein, Bacillus subtilis, UniProt P54512 1-142, looked up)
chain: MTTPSMEDYIEQIYMLIEEKGYARVSDIAEALAVHPSSVTKMVQKLDKDEYLIYEKYRGLVLTSKGKKIGKRLVYRHELLEQFLRIIGVDEEKIYNDVEGIEHHLSWNSIDRIGDLVQYFEEDDARKKDLKSIQKKTEHHNQ
notes: Manganese-dependent transcription factor MntR of Bacillus subtilis, UniProt P54512; Theoretical mass of the dimer printed as 33.8 kDa; also called BMntR; B. subtilis MntR protein; source: purified as before [3]
stoichiometry N: 2
